{"source": "patent US7785631B2", "about": "“Solid dose delivery vehicle and methods of making same” (Quadrant Drug Delivery Limited, priority 1994, dated 2010)", "assay_type_in_all_cases": "physicochemical", "key": {"[1]": {"experiment": "Alkaline phosphatase activity after drying and acetone exposure", "settings": "dried with 50% trehalose versus dried without trehalose; with bovine serum albumin; FIG. 6B", "method": "(§1) A 0.1 mg/ml horseradish peroxidase solution or a 1 mg/ml alkaline phosphatase/4 mg/ml bovine serum albumin solution was dried in an FTS Systems freeze drier with or without 50% trehalose. The drier was used as a vacuum drier and the mixtures dried without freezing. Four times the volume of solvent was added and the solution was allowed to evaporate to dryness. The contents were redissolved in 5 milliliters of water, and enzyme activity was assessed, in serial dilution, by commercial ‘kit’ reagents."}, "[2]": {"experiment": "Horseradish peroxidase activity after drying and acetone exposure", "settings": "dried with 50% trehalose versus dried without trehalose; FIG. 6A", "method": "as §1"}, "[3]": {"experiment": "Storage of phycoerythrin dried in trehalose at 100° C.", "settings": "stored at 100° C. for one month", "method": "A 400 μg/ml phycoerythrin solution was freeze-dried in the FTS drier with or without 20% trehalose."}, "[4]": {"experiment": "Exposure of dried phycoerythrin powder to organic solvents, fluorescence", "settings": "freeze-dried powder", "method": "A 400 μg/ml phycoerythrin solution was freeze-dried in a Labconco freeze-drier with or without 20% trehalose. The dried protein powder was exposed to a number of organic solvents for 72 hrs."}}, "data": [{"substance": "alkaline phosphatase", "values": [{"measurement": "resistance of enzyme activity to acetone", "setting": "[1]", "value": "more resistant to acetone"}]}, {"substance": "horseradish peroxidase", "values": [{"measurement": "resistance of enzyme activity to acetone", "setting": "[2]", "value": "more resistant to acetone"}]}, {"substance": "phycoerythrin", "values": [{"measurement": "loss of functional activity on storage", "setting": "[3]", "value": "no detectable loss of functional activity"}, {"measurement": "fluorescence after solvent exposure", "setting": "[4]; acetone, 72 hrs", "value": "remained fluorescent"}, {"measurement": "fluorescence after solvent exposure", "setting": "[4]; acetonitrile, 72 hrs", "value": "remained fluorescent"}, {"measurement": "fluorescence after solvent exposure", "setting": "[4]; chloroform, 72 hrs", "value": "remained fluorescent"}, {"measurement": "fluorescence after solvent exposure", "setting": "[4]; dimethylsulfoxide (powder solubilized)", "value": "remained fluorescent"}, {"measurement": "fluorescence after solvent exposure", "setting": "[4]; methanol, 72 hrs", "value": "remained fluorescent"}, {"measurement": "time remained fluorescent", "setting": "[4]; pyridine", "value": "24 to 48", "unit": "h"}, {"measurement": "fluorescence after solvent exposure", "setting": "[4]; pyridine, by 72 hrs", "value": "lost fluorescence"}]}]}
